Paper PMC9396398, “Crystal structure of Ankyrin-G in complex with a fragment of Neurofascin reveals binding mechanisms required for integrity of the axon initial segment” (The Journal of Biological Chemistry, 2022)
Substitutions are numbered along the chain they refer to.

Experiments:
Assay in all cases: ITC
AnkG R1-24 T339A, N341A = molecular target: T1, AnkG R1-24 T339A, N341A (Rattus norvegicus)
T1 chain: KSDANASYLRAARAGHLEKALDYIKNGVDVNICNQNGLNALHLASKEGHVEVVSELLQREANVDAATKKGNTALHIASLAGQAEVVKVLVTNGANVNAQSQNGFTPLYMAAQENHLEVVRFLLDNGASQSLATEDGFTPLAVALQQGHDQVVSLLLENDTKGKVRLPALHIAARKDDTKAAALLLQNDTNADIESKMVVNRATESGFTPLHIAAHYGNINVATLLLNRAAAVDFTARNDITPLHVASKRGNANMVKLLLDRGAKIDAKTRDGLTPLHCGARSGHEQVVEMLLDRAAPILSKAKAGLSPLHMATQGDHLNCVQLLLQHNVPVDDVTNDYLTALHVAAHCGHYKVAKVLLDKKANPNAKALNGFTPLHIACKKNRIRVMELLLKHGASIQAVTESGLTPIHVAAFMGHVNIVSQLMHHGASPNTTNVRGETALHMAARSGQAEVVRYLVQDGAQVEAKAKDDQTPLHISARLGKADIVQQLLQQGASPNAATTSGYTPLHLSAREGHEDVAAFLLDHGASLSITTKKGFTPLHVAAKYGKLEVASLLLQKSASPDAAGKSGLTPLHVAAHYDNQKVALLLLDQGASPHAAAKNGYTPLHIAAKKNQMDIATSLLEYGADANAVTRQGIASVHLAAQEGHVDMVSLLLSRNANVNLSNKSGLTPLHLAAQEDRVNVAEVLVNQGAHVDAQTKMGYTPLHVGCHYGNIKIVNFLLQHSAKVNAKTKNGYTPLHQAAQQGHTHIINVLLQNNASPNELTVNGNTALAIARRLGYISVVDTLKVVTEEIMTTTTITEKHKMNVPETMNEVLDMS

AnkG R1-24 M348Q = molecular target: T2, AnkG R1-24 M348Q (Rattus norvegicus)
T2 chain: T1 chain with A302T, A304N, M311Q

AnkG R1-24 H384A = molecular target: T3, AnkG R1-24 H384A (Rattus norvegicus)
T3 chain: T1 chain with A302T, A304N, H347A

Kd (AnkG R1-24 T339A, N341A): 2500 nM
Kd (AnkG R1-24 M348Q): 1800 nM
Kd (AnkG R1-24 H384A): 1700 nM
B1: Nfasc ankyrin-binding domain (ABD, residues 1187-1214) (domain or fragment, UniProt P97685 1187-1214, looked up)
chain: SDDSLVDYGEGGEGQFNEDGSFIGQYTV
notes: also called Nfasc ABD; source: E. coli BL21 (DE3), purified (Ni-NTA, size-exclusion chromatography)
